Assay results reported in the DeepSol protein solubility set.

test: soluble on expression in E. coli; label from the status in PepcDB or PDB records

Sequence | soluble on expression in E. coli
MGSDKIHHHHHHMDITALQQQLELIQQNDYTQLRHIDINELTLHMLQYIGTTDSYVRYQLIYKCFVHFIHHEFLMDDQLKLLLQTCLSDEYLYCDIYSPHSDGVFTRSYTVSLIALILQFANSHYFCTEEDIEEIKNKLITYTNLETDFRGYIENKGWAHCLAHVSDAFTEIVHNSYTTFEWYEELIHCLLNKIFIPSDLFHNNEDERIVTPLLAMLYHDFPQDELISIIQKKIKRLPQIRKRLSLNEYCILCANIKTFLRTLFFRTKDDHNLAFTARKTERMLKELPNYY | not soluble
FKYIQKIAKTEIKREEVPDVKDIISAKKIKIISGIKEVLESGKYADCEKMASDLLEDADPQEVLSAVLKYALKDELS | not soluble
MSGSMLQLIDLCKGYVDGDEFHPVLQGAELTLNQGDQLALMGESGSGKSTLLNLIAGLDSADSGEIWFPGFPMHHTSEHHRTAFRRDNIGQIFQQYNLLPTLNIADNIRFCRQLKGLPEDAGLWRQILSALDLMPLLGRYPEEVSGGQQQRAAIARALYMEPKILLADEPTGSLDERNAEAVMRLLTTLTRQLNCALLLVTHSEKVAQHMDGCIRLQGGQLHVMARS | not soluble
MGKISIVGLGPGDYSLISQGVLESLINSPKVFFRTEKHPIIDKLKETIQYTSLDYFYEKEENFDNVYLKISEFIIEESAKGDLVYAVPGHPRVAEKTVSIIERLANEKHIAVEILPSMSFVDAMFNYLAIDPSEGFKLVDAFEIENSYIDLDTSMIITQVYDKFIASNVKLKLMEHYDYNQEVCIVNGAGVKDLESKKFIKLCELDRNENFFDYLTSLYIPKSSKKMYNTVHDLEIIVNTLRSPSGCEWDKKQTHQSLKNSVIEEAYELCNAIDNNDIDEMVEELGDVLLQVIFHCQIGNEEGYFDLKEVVNGICKKLIHRHPHIFSGAKLDMSKFEKTWEELKKEEKGESTITDGLRRIPKHLPALMKASKVQHKAALVGFDWDNVEDVFKKIEEEYQELLDEHRVGNIKYIKEELGDLLFSIVNLARFLDIDSGEALNCTTEKFINRFDFIEKSAMNLNKKLEDMTLEEMDEFWNQAKKQ | not soluble
MAKLITLGEILIEFNALSPGPLRHVSYFEKHVAGSEANYCVAFIKQGNECGIIAKVGDDEFGYNAIEWLRGQGVDVSHMKIDPSAPTGIFFIQRHYPVPLKSESIYYRKGSAGSKLSPEDVDEEYVKSADLVHSSGITLAISSTAKEAVYKAFEIASNRSFDTNIRLKLWSAEEAKREILKLLSKFHLKFLITDTDDSKIILGESDPDKAAKAFSDYAEIIVMKLGPKGAIVYYDGKKYYSSGYQVPVEDVTGAGDALGGTFLSLYYKGFEMEKALDYAIVASTLNVMIRGDQENLPTTKDIETFLREMKK | soluble
SAPVEHVVADAGAFLRHAALQDIGKNIYTIREVVTEIRDKATRRRLAVLPYELRFKEPLPEYVRLVTEFSKKTGDYPSLSATDIQVLALTYQLEAEFVGVSHLKQEPQKVKVSSSIQHPETPLHISGFHLPYKPKPPQETEKGHSACEPENLEFSSFMFWRNPLPNIDHELQELLIDRGEDVPSEEEEEEENGFEDRKDDSDDDGGGWITPSNIKQIQQELEQCDVPEDVRVGCLTTDFAMQNVLLQMGLHVLAVNGMLIREARSYILRCHGCFKTTSDMSRVFCSHCGNKTLKKVSVTVSDDGTLHMHFSRNPKVLNPRGLRYSLPTPKGGKYAINPHLTEDQRFPQLRLSQKARQKTNVFAPDYIAGVSPFVENDISSRSATLQVRDSTLGAGRRRLNPNASRKKFVKKR | soluble
DIGCYTLGINKPLEGVDITICMGASVGVSNGLAHVLNNKIIATIGDSTFIHAGIPPLINAVYNHADFVLVILDNSTTGMTGHQPHPGTGFRGCGEAGKAVRIEDIVRGCGVEFVEVVNPYNVRKMVDVLRRALNHDGVAVVIARQPCAILWSRARRREGKIVTYKVTEDC | not soluble
EEKLVKIAGFGGQGVLSMGLTLAEAACRDQKYVSWYPSYGPEQRGGTSNCSVIISGHEIGSPVVYSPGVLIALNKPSLENFAKDVKTGGTIIYDENIGDFEIPNGVTAIKVPASKIATEMGVSRAANTVMLGVLSALGYTGLSESVFVGAIEQTFSKKPKLIPINVEILNAGISWAKE | not soluble
GPGSMSLEGKVALITGAGSGFGEGMAKRFAKGGAKVVIVDRDKAGAERVAGEIGDAALAVAADISKEADVDAAVEAALSKFGKVDILVNNAGIGHKPQNAELVEPEEFDRIVGVNVRGVYLMTSKLIPHFKENGAKGQECVILNVASTGAGRPRPNLAWYNATKGWVVSVTKALAIELAPAKIRVVALNPVAGETPLLTTFMGEDSEEIRKKFRDSIPMGRLLKPDDLAEAAAFLCSPQASMITGVALDVDGGRSIGGRSI | soluble
EKMTRDEIEYMLTNSEETLEAEEIEMLQGIFSLDEMMAREVMVPRTDAFMIDINNDAQSNIEGILSQNFSRVPVFDDDKDRVVGVLHTKRLLEAGFKTGFDTIDLRKILQEPLFVPETIFVDDLLKALRNTQNQMAILLDEYGGVAGLVTLEDLLEEIVGEID | soluble
MGSDKIHHHHHHMLTLLSYHQKVLDHFKHQTKTWDFFTASQNKDEQLNQYKTELLKNTYKFDPEKDTSIYEKVAKSKQVLGLDINVYVYQAQYSDELNASVGFVNNEAHIVFSGQIIQLLDDDELLTVIAHELSHIKLYTMQGGDPEVAARIITAISNNYDSESSYMETARLFRLYTEIFCDRGAYEVQGSTGPVITSLVKTATGLKQVNAESYIKQAEEIFSADQQLKAASISHPENFIRARAIHLWHEKKEAAEEEIIRMIEGVTDIDALDIFKQKELAACTRQFLQLYLKPNWFRSTLVVSQAKQYFVDFSWDDKIILEETFITRMEKAHESVKNYFSYVLLDFALLDSTLEEIPFGWAFQFAEDIDIKETFDAVVKKELNLSDKKLQQHKQKTLSAFYNVKEGDGEQIYEG | not soluble
MSLKKTILCFGEALIDMLAQPLVKKGMPRAFLQCAGGAPANVAVAVARLGGAVQFVGMLGSDMFGDFLFDSFAEAGVVTDGIVRTSTAKTALAFVALDAHGERSFSFYRPPAADLLFRVEHFQDASFSDALIFHACSNSMTDADIAEVTFEGMRRAQAAGAIVSFDLNFRPMLWPNGENPASRLWKGLSLADVVKLSSEELDYLANTLAADANAVIQQLWQGRAQLLLVTDAAGPVHWYTRTAGGEVPTFRVQVQDSNAAGDAFVGGMLYTFAQQFDDAAALIDFCHDPESIVSTLRFAAAVGALAVTRQGAFTAMPMLSEVLSLIQEQSEGHHHHHH | soluble
GPLGSPWYYGKVTRHQAEMALNERGHEGDFLIRDSESSPNDFSVSLKAQGKNKHFKVQLKETVYCIGQRKFSTMEELVEHYKKAPIFTSEQGEKLYLVKHLS | soluble
MGSEFSIDQKRYLEGFATGVTAARAARGSLPAGSAASPSGPDAIHHQAQDRVTASGKKLNDQEKWKREQHPFDAYARLKQQAKDNAAPKPADNFRWRYYGLFYVAPAQTSYMCRLRIPNGILTSWQMAGLAYLADTLADGYAHVTTRANLQMREIAPKDAVQLLQGIESLGLWARGSGADNIRNVTGSATAGIDPQELIDTRAYARDWHFYILNERALFGLPRKFNVAFDGGGLIPTLEDTNDIAFQAVTIGDGHGVAPGVYFRLALGGITGHKDFARDTGVIVAPDEATEVADAIVRVFIEHGDRTDRNKARLKYVLDAFGFDKYLELVEDKLGRKLIRVPAEAAAPRPAQDRAAHLGVHPQQQAGMNWIGVRLATGHLTSVQMRGLAEIARSFGDGDLRLTVWQNLLISGVPDARVTDATAAIEALGLAITASPLRAGLIACTGASGCRFAAAHTKETAEAIAQYCEPRVPLDTPINIHLTGCHNSCAQHFISDIGLIGAKVAVSDEDSVEGFHIHVGGGFGVDAAIGTEVLRDVKQDDAPRVIERMLQTYLARRASPAETFLAFVRRQDAAALQQLFAYEQSPETVA | not soluble
MRKVLVFLKNSKKAFETFKRVERVLKDLNLSYKKFINRKELFKVLKPKDYELFLVIGGDGTFLSAARIASRFGVPLVGVNEGRFGFLTEIKKEEIKKVLPLVLEGRAKLQERLMIDVYLRSRNRLRYLGNYLNDAVISKSSIARIIRTKVFINGEEVLEVFGDGVILSTPTGSTAYALSAGGPIVYPESQNLLFVPICPHTLSNRPLVLPSKFEVKFKVVSENMEAFLTLDGQEGFHLKKGDEVIVKRSRYVCRMYSHPRKSFFGILKEKLRWG | soluble
MDDAELRAVRTLISLTTRYFAVFKNAPVIMAVIDDNGKVVDANNAAAELIGEKPSGKHLRELLPAELCEKVLSTLEKALEEEKKANLRAKVSGKLLRVQLTPISADGRKLCLLTGFSVEDELSKAAREILRLAARAGDAETVIKGMAKKFGELELFSQVKVELDGLREVVREKDGEFVYEFPLRMHRKKGRVTLESRKELSSEEIDMLAETFEDVSILISTLELESKLSAEVRRTVELINELREQLKAVTLSLEILENDGLKSIVKERLGKMLQVAERLAGE | not soluble
QQRFLNIATDGRLSPKQKSNFLALEAEACIPYMPISEALREAMSDGVICDMFEGHAPFKPRYVLPDYAKFLSQGSEYLELSPAEDFDDALN | not soluble
ADTFNLAKDIHSRILSIDTHTDTPLWFKNGYSVGLRKDNMVSIPKMEEGKLDAQFLAAFIWQGKRDDASSQKAVESTTRLIQSIYDEVEQYKDFCGIALTEEDLVRLKNEGKKAFFIGIENGYAIGKDLKNIKKYKQMGVNYITLCHSYDNDICHSSTHTEDATQGLTQFGREVVKEMNRLGIMIDISHASEGTFWDVIKYSAQPIIASHSSSKALCDHDRNLTDEQLRALAKNGGVAQLCLLDAYINKKTKAASICDAVEHLDHMIKVAGIDHVGIGTDFDGGGGLQGCRGDNDLINLTIKMIEKGYTEEDLRKIWGGNLLRVMKQVQEAPLLSSKKRR | not soluble
MGVDNFSTTKKMFTWEVPGERVITLMTAGNLATTQALISLLEERSKTPSERSPSILERPTMFEVARLVGATLKEVIADTAGTGQVASSQFKASVIVGGQVKGGLPTLFLIYPEGNFIEVTEDSPFFQIGEAKYGKPILVRAYDPDLSFEDTIRLLMVSFDSTIKANLSVGLPLDLQVYANDSFAIKEQSRVEADDAYFQSISERWGDALRKALSDLPPYKSLLEHHHHHH | not soluble
MVLAIAGCIEAYRTGHDARHGPRVPWERRLSEEDYLARLAAGSVSYSRDVQPILDSRCVVCHGCYDAPCQLKLESFDGLERGASKTPVYDTTRLQATPPTRLFIDAENVQGWRSKGFFPVLNERGDSPEANLRDSLLFRMLELKKAHPLPVSGALPDTFDFRLDRTLNCPTVEEFDDFEDDHPEWGMPYGFPGLSEREHDIVVKWLREGGFAPPPAPVSAEAASAVAQWEAFLNGSSPKERLFARYVYEHLFLGHLHFRGLAPREFFRLVRSRTPPGEPIREIATTRPYDSPGPGEFYYRLRPVQQSIVAKTHMVYELDDARMRRYRELFLDPEYAVDRLPGYAAADAANPFKTFVAIPPRSRYRFLLDDAHFFFSGFMKGSVCRGQAALNVIQDRFWVAFTHPDADPVSNDAQFLADQAERLRLPAEKENSPGIGDIWYTYRALEEDYQAAKAAWLRAHGERGGTTLADLWDGDGDNRDALLTVFRHFDSASVERGLVGDTPLTGWVVDYPLLERIHYLLVAGFDVFGNVGHQLATRLYMDFMRMEAENNFLRFLPSSIRQAERARWYKGIGARINDLWQSPRWGMGGETLIDYRTGNPKQEFFDRVRAGFGKAAGRPDPFTGCGVEVEGCGEGGEPALPPVQASVERELRRLAFARGGGVAFLPELSYLRIRTGSGGAEDGWIYSLVKNTALENVSMLFLEEIRRTPADDTVTLVRGIVGSYPNFFFDLDAAEVGEFVDAILSVDGSKAFGRRLVERFGVRRSNPAFWRISDWFNRRYLEASPVTAGWLDLSRYDNPLEHHHHHH | not soluble
